This note sets out measurements from patent US20250066498A1 (GO THERAPEUTICS, published 2025).

In assay [1] the target is T1, LAMP1-Tn peptide Biotin-CEQDRPSPTTAPPAPPSPSP (human, N-terminal biotin; O-linked GalNAc on the serine at position 7 and the threonines at positions 9 and 10).
T1 construct: Synthetic 20-mer glycopeptide made by FMOC synthesis; also called LAMP1 glycopeptide; glycosylated LAMP1 peptide
T1 peptide: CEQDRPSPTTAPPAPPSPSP
Put plainly: BLI (Octet), peptide on biosensor, apparent affinity (Example 3). The method, then:
Antibody affinity and epitope binning of monoclonal antibodies can be assessed against specific antigens using BLI. […] The affinity is determined by fitting the binding curve to a specific model: a 1:1 monovalent model or a 2:1 bivalent model. The error (>95% confidence) is calculated by how close the generated curve matches the model.
To characterize the cross-reactivity between mAb237 the anti-glyco-LAMP1 antibodies 3C7, 13C3, and 13G2, the affinities of mAb237, 3C7, 13C3, and 13G2 against the glycosylated LAMP1 peptide, the unglycosylated LAMP1 peptide, and the podoplanin glycopeptide were determined by Octet. Table 8 summarizes the dissociation constants (Kd) for mAb237, 3C7, 13C3, and 13G2 against the glycosylated LAMP1 peptide, the unglycosylated LAMP1 peptide, and the podoplanin glycopeptide. No cross reactivity was observed despite the sequence similarities observed between mAb237 and 3C7, 13C3, and 13G2.
(Biolayer interferometry detects binding as a change in optical thickness at a sensor tip.)

In assay [2] the target is T2, LAMP1-Tn (T1) peptide Biotin-CEQDRPSPTTAPPAPPSPSP (human, N-terminal biotin; GalNAc on one threonine (label 'T1'). By the order of items in paragraph 452 and paragraph 453 this is the threonine at position 9).
T2 construct: Singly glycosylated form of the LAMP1 20-mer
T2 peptide: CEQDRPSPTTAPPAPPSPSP
As to the kind of experiment: BLI (Octet), peptide on biosensor, apparent affinity.

The target of assay [3] is T1, LAMP1-Tn peptide …. The assay is described as above.
Assay [4] concerns the target T1, LAMP1-Tn peptide …. Put plainly: SPR (Biacore), antibody immobilised, peptide as analyte. The method, then: Antibody affinity assays can be carried out using surface plasmon resonance (e.g., using a Biacore system (Cytiva)). […] The affinity is determined by fitting the binding curve to a specific model: kinetic fit (1:1 model) or if applicable heterogenous ligand binding model.
To characterize the binding specificities of 3C7, 13C3, and 13G2 for non-glycosylated and Tn-glycosylated LAMP1, flow cytometry analysis of the LAMP1 mouse antibodies on T47D COSMC-KO cells was performed. […] The affinities of 3C7, 13C3, and 13G2 against the LAMP1 glycopeptides were determined by Biacore and Octet. Table 7 summarizes dissociation constants (Kd) for 3C7, 13C3, and 13G2 against different glycoforms of LAMP1 peptide, as well as unglycosylated LAMP1 and MUC1-Tn.

B1: 3C7.2C11.1C9 (antibody, V domains shown)
VH: EVKLEESGGGLVQPGGSMKVSCGASGFTFSDAWMDWVRQSPEKGLEWVAEMRSKAFNHAIYYAESVKGRFTISRDDSKSRVYLQMNLLRPEDTGIYYCTPNWDEGFAYWGQGTLVTVSA
VL: DVMLTQTPLSLPVSLGDQASISCRSSQSLVHSNGNTYLHWYLQKPGQSPKLLINKVSNRFFGVPDRFSGSGSGTDFTLKISRVEAEDLGVYFCSQSTHVPRTFGGGTKLEIK
notes: Mouse monoclonal antibody from a hybridoma (Balb/c mice immunised with KLH-LAMP1-Tn glycopeptide)
Turning to B1, the Kd in assay [1] turned out to be 13.9 nM; in assay [2] it was 810 nM; in assay [3], 18.2 nM; in assay [4], 28.7 nM.
